Reference: US20230183353A1

Legend:
[1] = molecular target: recombinant human FcγRIIIa (Phe) (human) (UniProt P08637); assay: SPR (ProteOn), receptor immobilised on GLC chip by amine coupling, pH 7.4, 25 C
[2] = molecular target: recombinant human FcγRIIIa (Val) (human) (UniProt P08637); assay: as above
recombinant human FcγRIIIa (Val) (human), sequence (P08637 17-208 F176V limits assumed): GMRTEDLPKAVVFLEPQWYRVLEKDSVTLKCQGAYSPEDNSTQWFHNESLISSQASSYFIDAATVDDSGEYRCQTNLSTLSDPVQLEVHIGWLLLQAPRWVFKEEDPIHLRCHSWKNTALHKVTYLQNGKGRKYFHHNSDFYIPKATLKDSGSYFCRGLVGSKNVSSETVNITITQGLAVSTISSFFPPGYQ

recombinant human FcγRIIIa (Phe) (human), sequence (P08637 17-208 limits assumed): as the sequence (P08637 17-208 F176V limits assumed) above, with V160F counted along it

Q: With “Control molecule representing human IgG1 control (lacking substitutions of the present invention)” as the substance, how does the Kd [1] read?
A: 2.2 µM

Q: And the Kd [2]?
A: 1.28 µM
